The target of data set [1] is optimised anti-ras zinc finger peptide (Asn at helix +3 of finger 1) (Artificial Sequence, S21N (finger 1 helix position +3 Ser to Asn; numbering of SEQ 14)). The experiment in a line: apparent Kd; phage binding. The conditions noted are these: protein: virion; label: biotin.
Data set [2] concerns the target anti-ras lead zinc finger peptide (3 fingers) (Artificial Sequence). The data set can be described thus: apparent Kd; phage binding. The conditions noted are these: protein: virion; label: biotin.

optimised anti-ras zinc finger peptide (Asn at helix +3 of finger 1) (Artificial Sequence, S21N (finger 1 helix position +3 Ser to Asn; numbering of SEQ 14)), sequence (chain, as listed by the source with the stated changes): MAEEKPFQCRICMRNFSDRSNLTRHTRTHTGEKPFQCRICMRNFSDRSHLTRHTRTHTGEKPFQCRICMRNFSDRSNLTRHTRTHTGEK
anti-ras lead zinc finger peptide (3 fingers) (Artificial Sequence), sequence (chain, as listed by the source): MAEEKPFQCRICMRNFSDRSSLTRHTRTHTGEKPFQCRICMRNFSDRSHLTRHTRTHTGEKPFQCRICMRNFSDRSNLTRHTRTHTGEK

B1: EJ mutant (G12V) H-ras DNA, codons 8-16 (dsDNA)
DNA 1: GTGGTGGGCGCCGTCGGTGTGGGCAAG
DNA 2: CTTGCCCACACCGACGGCGCCCACCAC
For B1, the Kd was 3 nM in data set [1] and 17 nM in data set [2].

These data come from patent US20040253623, “Nucleic acid binding proteins” (Gendaq Limited, published 2004).
